The target of this series is CCAN (CENP-C, CENP-LN, CENP-HIKM, CENP-OPQUR, CENP-TWSX) (Homo sapiens, UniProt Q03188;Q8N0S6;Q96H22;Q9H3R5;Q92674;Q9BS16;Q9NSP4;Q9BU64;Q6IPU0;Q7L2Z9;Q71F23;Q13 …). The series can be described thus: cryo-EM; mild cross-linking; 3.5 A; SEC on Superose 6 Increase or Agilent Bio SEC-5 1000A; buffer, salt, pH and temperature not given in the material. Conditions: protein: recombinant; copies: 1;1;1;1;1;1;1;1;1;1;1;1;1;1;1;1.

B1: native alpha-satellite 171 bp DNA (dsDNA)
DNA 1: CCGCTTTGAGGCCTTCGTTGGAAACGGGAATATGTTCACATAAAAACTAGACAGAAGCATTCTCAGAAACTTCTATGTGATGTTTGCATTCAACTCATAGAGTTGAACATTCCTTTTCATAGAGCAGTTTTGAAACACTCTTTTTGTAGTATCTGGAATTGGACATTTGGA
DNA 2: TCCAAATGTCCAATTCCAGATACTACAAAAAGAGTGTTTCAAAACTGCTCTATGAAAAGGAATGTTCAACTCTATGAGTTGAATGCAAACATCACATAGAAGTTTCTGAGAATGCTTCTGTCTAGTTTTTATGTGAACATATTCCCGTTTCCAACGAAGGCCTCAAAGCGG
As for B1, the binding result is given as “binds”.

Values taken from publication doi:10.1101/2025.11.04.686567, “Models for the architecture of the human inner kinetochore CCAN complex on centromeric α-satellite CENP-A nucleosome arrays”.
